From patent US20060223140

How the values were obtained:
peptide-T = biological target: T1, peptide-T
T1 chain: ASTTTNYT

PAMP-12 = biological target: T2, PAMP-12
T2 chain: FRKKWNKWALSR

B1: recombinant endo-α-N-acetylgalactosaminidase derived from Bifidobacterium longum JCM1217 (protein)
chain: MKKKKTISAALATALALTCMGSGGGTAFAVPLSDADLQTLASQIQQINDTSDSATASETPSAQADAVEGWTIDSNIAQGGEILEMANGWLHLKSTASNGNAAANPSSSNNWPAVAVWGTDYDFSKAGSFHATIKSPQEGSANRFGFYLGYNDPGSGLFIGYDSGGWFWQTYTGGGSGSWYSGARIAAPSANEEHDIRVSWTDAKVATLTVDGQKAFDVDYSAMTNLSNKLAIKAGSWKELNEVTDVYIKDFPEVVEAAKHAVSGKVVDAGGAAIEGATVRLDKTKVKTGADGTFSFADIEEGEHTLSIAKEGYEDVSQQVTVSGADLAIDPITLNKTVQVASETLKTKKMEVQIKKNFPSVLQYTMTDGKVMYGQSKDVRTVEINGTNIELGDDDVTFKKVSDTEATYTLKVKDEAKKIDAVITVQITVKANQLHLNVTKIKNNLSEGIPEGNGVEENAIQTLSFPNQSLVSVRSSQENAQFTGARMSSNTQKPGDTNFAVTEDTNVTDSDYTYGFISGAGLSAGLWSNSEHDGTYVAAPVRGGSQNTRVYATTQQTGDATSLGLASAPWYYHRTVTDSKGKKYTVAETALPQMAVAIAGDENEDGAVNWQDGAIAYRDIMNNPYKSEEVPELVAWRIAMNFGSQAQNPFLTTLDNVKKVALNTDGLGQSVLLKGYGNEGHDSGHPDYGDIGQRLGGADDMNTMMEEGSKYGARFGVHVNASEMYPEAKAFSEDMVRRNSAGGLSYGWNWLDQGVGIDGIYDLASGSRVSRFADLSKEVGDNMDFIYLDVWGNLTSSGSEDSWETRKMSKMINDNGWRMTTEWGSGNEYDSTFQHWAADLTYGGYTSKGENSEVMRFLRNHQKDSWVGDYPQYGGAANAPLLGGYNMKDFEGWQGRNDYAAYIKNLYTHDVSTKFIQHFKVTRWVNNPLLTADNGNAAAVSDPNTNNGNEQITLKDSNGNVVVVSRGSNDTSSAAYRQRTITFNGVKVASGVVSAGDGSATGDESYLLPWMWDSFTGKLVKDSEQKLYHWNTKGGTTTWTLPDSWKNLSSVKVYQLTDQGKTNEQTVAVSGGKVTLTADAETPYVVYKGEAKQIQVNWSEGMHVVDAGFNGGSNTLTDNWTVSGSGKAEVEGDNNAMLRLTGKVDVSQRLTDLKAGQKYALYVGVDNRSTGDASVTVTSGGKVLATNSTGKSIAKNYIKAYGHNTNSNTENGSSYFQNMYVFFTAPENGDATVTLSHKSTDGAHTYFDDVRIVENQYSGITYEKDGTLKSLTNGFENNAQGIWPFVVSGSEGVEDNRIHLSELHAPFTRAGWDVKKMDDVLDGTWSVKVNGLTQKGTLVYQTIPQNVKFEAGAKYKVSFDYQSGSDDIYAIAVGQGEYSAGSVKLTNLKKALGETGKAEFELTGGVNGDSWFGIYSTATAPDLQGSTGNAQDFGGYKDFVLDNLKIERIESQTRTKAEAQDKVKEIRGKYDSKRAELSDAAWQQYQDTLVKARVLINKNGATAEDFTKAYDILVALDEYMKTAPGNESSDKYDVAADGSDELGGYTVATGSEEPTAGLPSEGPADLAQDGNDSTHWHTSWSENAVGNGTAWYQFNLNEPTTINGLRYLPRSGGMNANGKIKGYKITLTLADGTTKDVVTDAEFSTTTMWQKASFDAVENVTAVRSTVLSSAGQSDSQANKFASAAELRLTTDREVEEETVAPDKTDLNDTIAKANGLKESDYTAESWTALVKAREAAQAVADNDKATAYDVALALTNLESAIAGLEKTGEEPGPGPVEVNKTDLQTAVNKASKLEKADYTTNSWEAFAEALKAAQQVLDNKNATQQDVDTALSALQDAISKLEAATEPKPNPEPGVVDKAALNATINKAAAINLGLYTDDSANALRAALKKAREVSDNSNATQKQVDAAREALEKAIAALVKRPAAKGDGNVVSNTGSDVATIALAGLLLAGAGAAIAYRRNREQL
peptide-T
  transglycosylation activity (HPLC product peak; confirmed by MALDI-TOF-MS): it was demonstrated that the sugar chain was transferred to each peptide because peaks of transglycosylation products ("product" portion in each Figure) were observed
bradykinin
  transglycosylation activity (HPLC product peak; confirmed by MALDI-TOF-MS): it was demonstrated that the sugar chain was transferred to each peptide because peaks of transglycosylation products ("product" portion in each Figure) were observed
PAMP-12
  transglycosylation activity (HPLC product peak; confirmed by MALDI-TOF-MS): it was demonstrated that the sugar chain was transferred to each peptide because peaks of transglycosylation products ("product" portion in each Figure) were observed
